Assay results taken from publication PMC3781949 (Molecular microbiology, 2011).

Target: the molecule itself
Assay: SPR

B1: Maf-His6, purified recombinant Maf (natural protein, B. subtilis, UniProt Q02169 1-189, looked up)
chain: MTKPLILASQSPRRKELLDLLQLPYSIIVSEVEEKLNRNFSPEENVQWLAKQKAKAVADLHPHAIVIGADTMVCLDGECLGKPQDQEEAASMLRRLSGRSHSVITAVSIQAENHSETFYDKTEVAFWSLSEEEIWTYIETKEPMDKAGAYGIQGRGALFVKKIDGDYYSVMGLPISKTMRALRHFDIRA
B1: binds.
